Legend:
[1] = target: M-CSFRGD variant 4.22, purified soluble protein (human) (UniProt P09603); assay: SPR; ProteOn XPR36; M-CSF variants immobilised by amine coupling; c-FMS or αvβ3 integrin flowed at 0, 12.5, 25, 50, 100 and 200 nM, 50 μl/min, 25 °C, PBS + 0.005% Tween; KD from the equilibrium binding phase; apparent (S9 Fig legend)
[2] = target: M-CSFRGD variant 4.24, purified soluble protein (human) (UniProt P09603); assay: as above
[3] = target: M-CSF_(αvβ3), monospecific M-CSF that can bind αvβ3 integrin (human) (UniProt P09603); assay: as above
[4] = target: M-CSFRGD variant 5.6, purified soluble protein (human) (UniProt P09603); assay: as above
[5] = target: αvβ3 integrin (Homo sapiens) (UniProt P06756); conditions: cited from earlier work
Sequence of αvβ3 integrin (Homo sapiens) (P06756 31-992, chain 1 of 2): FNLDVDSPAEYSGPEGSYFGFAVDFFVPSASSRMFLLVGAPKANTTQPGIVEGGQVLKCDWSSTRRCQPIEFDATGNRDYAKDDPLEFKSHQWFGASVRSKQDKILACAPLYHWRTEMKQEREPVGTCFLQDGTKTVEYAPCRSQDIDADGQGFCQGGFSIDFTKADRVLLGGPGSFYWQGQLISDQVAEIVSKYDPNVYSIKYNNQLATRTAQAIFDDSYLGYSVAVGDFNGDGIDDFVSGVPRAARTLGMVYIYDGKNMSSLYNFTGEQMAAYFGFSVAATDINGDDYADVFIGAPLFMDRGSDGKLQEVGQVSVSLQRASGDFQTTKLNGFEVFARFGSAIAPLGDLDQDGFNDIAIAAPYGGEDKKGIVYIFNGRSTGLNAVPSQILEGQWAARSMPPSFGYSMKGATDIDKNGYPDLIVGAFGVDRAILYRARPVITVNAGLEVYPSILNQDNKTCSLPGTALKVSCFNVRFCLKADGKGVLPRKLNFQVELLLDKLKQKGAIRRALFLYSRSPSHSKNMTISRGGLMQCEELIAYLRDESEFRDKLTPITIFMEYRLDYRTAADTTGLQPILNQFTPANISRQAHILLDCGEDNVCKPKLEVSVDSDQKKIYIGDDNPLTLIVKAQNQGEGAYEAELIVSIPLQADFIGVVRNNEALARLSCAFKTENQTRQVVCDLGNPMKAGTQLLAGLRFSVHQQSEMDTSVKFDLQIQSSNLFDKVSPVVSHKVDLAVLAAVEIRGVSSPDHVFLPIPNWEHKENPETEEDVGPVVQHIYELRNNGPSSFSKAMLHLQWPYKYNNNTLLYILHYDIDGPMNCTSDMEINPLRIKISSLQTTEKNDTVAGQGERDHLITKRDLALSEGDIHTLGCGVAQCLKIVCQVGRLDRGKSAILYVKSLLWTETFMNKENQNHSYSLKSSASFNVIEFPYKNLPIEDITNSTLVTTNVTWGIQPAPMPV
Sequence of αvβ3 integrin (Homo sapiens) (P05106 27-718, chain 2 of 2, further chain): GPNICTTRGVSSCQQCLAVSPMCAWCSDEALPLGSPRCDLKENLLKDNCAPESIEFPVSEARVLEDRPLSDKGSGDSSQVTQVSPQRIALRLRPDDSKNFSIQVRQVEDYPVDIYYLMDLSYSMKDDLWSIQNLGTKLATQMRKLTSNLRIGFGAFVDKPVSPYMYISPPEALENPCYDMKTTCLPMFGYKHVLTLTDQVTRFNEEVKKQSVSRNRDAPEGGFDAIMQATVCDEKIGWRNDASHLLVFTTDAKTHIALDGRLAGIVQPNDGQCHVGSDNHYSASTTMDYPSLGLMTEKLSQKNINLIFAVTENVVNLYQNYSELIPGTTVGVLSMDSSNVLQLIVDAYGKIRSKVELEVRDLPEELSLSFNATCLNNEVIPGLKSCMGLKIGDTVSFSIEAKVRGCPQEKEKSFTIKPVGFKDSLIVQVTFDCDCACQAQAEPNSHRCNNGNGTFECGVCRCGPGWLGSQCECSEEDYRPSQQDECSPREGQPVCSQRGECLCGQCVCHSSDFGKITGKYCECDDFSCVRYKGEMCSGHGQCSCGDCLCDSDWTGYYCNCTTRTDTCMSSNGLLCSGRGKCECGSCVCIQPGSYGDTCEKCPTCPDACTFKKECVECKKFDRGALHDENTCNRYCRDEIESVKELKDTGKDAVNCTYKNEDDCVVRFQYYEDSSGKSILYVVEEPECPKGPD

c-FMS (Homo sapiens) = c-FMS (Homo sapiens) (UniProt P07333); conditions: cited from earlier work
Sequence of c-FMS (Homo sapiens) (P07333 20-517): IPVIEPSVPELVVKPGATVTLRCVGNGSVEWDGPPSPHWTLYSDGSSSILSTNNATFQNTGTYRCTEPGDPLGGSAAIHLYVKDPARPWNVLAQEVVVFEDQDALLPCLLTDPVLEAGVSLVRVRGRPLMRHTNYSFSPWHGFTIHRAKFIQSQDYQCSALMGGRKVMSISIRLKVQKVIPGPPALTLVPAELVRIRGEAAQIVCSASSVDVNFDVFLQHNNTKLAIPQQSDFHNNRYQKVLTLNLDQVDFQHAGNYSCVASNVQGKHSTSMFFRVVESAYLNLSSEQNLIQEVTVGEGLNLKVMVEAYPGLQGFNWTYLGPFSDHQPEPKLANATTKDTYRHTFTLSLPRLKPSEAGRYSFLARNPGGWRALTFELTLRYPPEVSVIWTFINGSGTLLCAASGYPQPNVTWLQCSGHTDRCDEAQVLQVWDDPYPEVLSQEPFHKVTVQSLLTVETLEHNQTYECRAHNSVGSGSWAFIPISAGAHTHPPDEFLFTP

[6] = target: M-CSF_(c-FMS), monospecific M-CSF that can bind only c-FMS (human) (UniProt P09603); assay: SPR; ProteOn XPR36; M-CSF variants immobilised by amine coupling; c-FMS or αvβ3 integrin flowed at 0, 12.5, 25, 50, 100 and 200 nM, 50 μl/min, 25 °C, PBS + 0.005% Tween; KD from the equilibrium binding phase; apparent (S9 Fig legend)
[7] = target: T1, soluble Fc-conjugated human c-FMS (human, UniProt P07333 20-517); assay: flow cytometry on cells; yeast surface display: yeast displaying M-CSF incubated with soluble c-FMS-Fc (0.5–2000 nM for the titration, 100 nM for the libraries, 50 nM for single clones) in PBS + 1% BSA, 1 h at room temperature; detected with goat anti-human Fc FITC; apparent; conditions: one partner purified
T1 construct: c-FMS (M-CSF receptor, CSF-1R), human, soluble form; Detected with goat anti-human Fc FITC; also called c-FMS-Fc; soluble c-FMS; source: bought: R&D systems
T1 sequence (P07333 20-517): as above

Sequence of human c-FMS soluble protein (P07333 20-517): as above
Sequence of vitronectin (P04004 399-478): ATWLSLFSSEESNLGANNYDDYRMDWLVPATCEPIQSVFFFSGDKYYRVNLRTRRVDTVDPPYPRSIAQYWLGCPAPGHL
Sequence of M-CSF (P09603 33-190): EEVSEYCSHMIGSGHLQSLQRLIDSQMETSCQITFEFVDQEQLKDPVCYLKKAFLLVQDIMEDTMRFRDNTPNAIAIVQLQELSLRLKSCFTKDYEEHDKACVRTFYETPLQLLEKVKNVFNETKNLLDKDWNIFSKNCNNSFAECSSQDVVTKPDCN

Row | Molecule | Kd [1] [nM] | Kd [2] [nM] | Kd [4] [nM] | further results
1 | vitronectin (from UniProt P04004) |  |  |  | Kd [5]: 40.7 nM
2 | M-CSF (from UniProt P09603) |  |  |  | Kd (c-FMS (Homo sapiens)): 13.6 nM
3 | M-CSF_(C31S), displayed on the yeast surface (ligand, Yeast-displayed Aga fusion with c-myc tag (carrier left out). Mature numbering +32 = precursor. Limits follow the M-CSF part of PDB 4WRL entity 2 (mature 1-149); the paper's own limits are not …) EEVSEYCSHMIGSGHLQSLQRLIDSQMETSSQITFEFVDQEQLKDPVCYLKKAFLLVQDIMEDTMRFRDNTPNAIAIVQLQELSLRLKSCFTKDYEEHDKACVRTFYETPLQLLEKVKNVFNETKNLLDKDWNIFSKNCNNSFAECSSQ |  |  |  | Kd [7]: 20 nM

Second part, led by results:

Row | Kd [1] [nM] | Kd [2] [nM] | Kd [4] [nM] | Molecule | further results
4 | 199 | 108 | 245 | soluble human αvβ3 integrin (from UniProt P06756 31-1048; P05106 27-718) (complex) | Kd [3]: 231 nM
5 | 152 | 219 | 96 | human c-FMS soluble protein (from UniProt P07333 20-517) (receptor) | Kd [6]: 195 nM

Reference: paper PMC6126843, “A dual-specific macrophage colony-stimulating factor antagonist of c-FMS and αvβ3 integrin for osteoporosis therapy” (PLoS Biology, 2018)
